Experiment [1] addresses FGFR1 (Homo sapiens) (UniProt P11362). In words: surface plasmon resonance. The conditions noted are these: cited from earlier work.
Experiment [2] shares this target. As to the kind of experiment: surface plasmon resonance. Conditions: cited from earlier work. The source holds these as a separate data set. In general terms: In SPR one partner is held on a chip, and binding of the other changes the refractive index at the surface.
Experiment [3] concerns the target FGF2 (Homo sapiens) (UniProt P09038). In words: SPR. Conditions: cited from earlier work.
Experiment [4] shares this target. As to the kind of experiment: SPR. Conditions: cited from earlier work. The source holds these as a separate data set.
The target in experiment [5] is low density lipoprotein receptor-related protein (LRP) (UniProt Q07954).
low density lipoprotein receptor-related protein (LRP), sequence (Q07954 20-4544): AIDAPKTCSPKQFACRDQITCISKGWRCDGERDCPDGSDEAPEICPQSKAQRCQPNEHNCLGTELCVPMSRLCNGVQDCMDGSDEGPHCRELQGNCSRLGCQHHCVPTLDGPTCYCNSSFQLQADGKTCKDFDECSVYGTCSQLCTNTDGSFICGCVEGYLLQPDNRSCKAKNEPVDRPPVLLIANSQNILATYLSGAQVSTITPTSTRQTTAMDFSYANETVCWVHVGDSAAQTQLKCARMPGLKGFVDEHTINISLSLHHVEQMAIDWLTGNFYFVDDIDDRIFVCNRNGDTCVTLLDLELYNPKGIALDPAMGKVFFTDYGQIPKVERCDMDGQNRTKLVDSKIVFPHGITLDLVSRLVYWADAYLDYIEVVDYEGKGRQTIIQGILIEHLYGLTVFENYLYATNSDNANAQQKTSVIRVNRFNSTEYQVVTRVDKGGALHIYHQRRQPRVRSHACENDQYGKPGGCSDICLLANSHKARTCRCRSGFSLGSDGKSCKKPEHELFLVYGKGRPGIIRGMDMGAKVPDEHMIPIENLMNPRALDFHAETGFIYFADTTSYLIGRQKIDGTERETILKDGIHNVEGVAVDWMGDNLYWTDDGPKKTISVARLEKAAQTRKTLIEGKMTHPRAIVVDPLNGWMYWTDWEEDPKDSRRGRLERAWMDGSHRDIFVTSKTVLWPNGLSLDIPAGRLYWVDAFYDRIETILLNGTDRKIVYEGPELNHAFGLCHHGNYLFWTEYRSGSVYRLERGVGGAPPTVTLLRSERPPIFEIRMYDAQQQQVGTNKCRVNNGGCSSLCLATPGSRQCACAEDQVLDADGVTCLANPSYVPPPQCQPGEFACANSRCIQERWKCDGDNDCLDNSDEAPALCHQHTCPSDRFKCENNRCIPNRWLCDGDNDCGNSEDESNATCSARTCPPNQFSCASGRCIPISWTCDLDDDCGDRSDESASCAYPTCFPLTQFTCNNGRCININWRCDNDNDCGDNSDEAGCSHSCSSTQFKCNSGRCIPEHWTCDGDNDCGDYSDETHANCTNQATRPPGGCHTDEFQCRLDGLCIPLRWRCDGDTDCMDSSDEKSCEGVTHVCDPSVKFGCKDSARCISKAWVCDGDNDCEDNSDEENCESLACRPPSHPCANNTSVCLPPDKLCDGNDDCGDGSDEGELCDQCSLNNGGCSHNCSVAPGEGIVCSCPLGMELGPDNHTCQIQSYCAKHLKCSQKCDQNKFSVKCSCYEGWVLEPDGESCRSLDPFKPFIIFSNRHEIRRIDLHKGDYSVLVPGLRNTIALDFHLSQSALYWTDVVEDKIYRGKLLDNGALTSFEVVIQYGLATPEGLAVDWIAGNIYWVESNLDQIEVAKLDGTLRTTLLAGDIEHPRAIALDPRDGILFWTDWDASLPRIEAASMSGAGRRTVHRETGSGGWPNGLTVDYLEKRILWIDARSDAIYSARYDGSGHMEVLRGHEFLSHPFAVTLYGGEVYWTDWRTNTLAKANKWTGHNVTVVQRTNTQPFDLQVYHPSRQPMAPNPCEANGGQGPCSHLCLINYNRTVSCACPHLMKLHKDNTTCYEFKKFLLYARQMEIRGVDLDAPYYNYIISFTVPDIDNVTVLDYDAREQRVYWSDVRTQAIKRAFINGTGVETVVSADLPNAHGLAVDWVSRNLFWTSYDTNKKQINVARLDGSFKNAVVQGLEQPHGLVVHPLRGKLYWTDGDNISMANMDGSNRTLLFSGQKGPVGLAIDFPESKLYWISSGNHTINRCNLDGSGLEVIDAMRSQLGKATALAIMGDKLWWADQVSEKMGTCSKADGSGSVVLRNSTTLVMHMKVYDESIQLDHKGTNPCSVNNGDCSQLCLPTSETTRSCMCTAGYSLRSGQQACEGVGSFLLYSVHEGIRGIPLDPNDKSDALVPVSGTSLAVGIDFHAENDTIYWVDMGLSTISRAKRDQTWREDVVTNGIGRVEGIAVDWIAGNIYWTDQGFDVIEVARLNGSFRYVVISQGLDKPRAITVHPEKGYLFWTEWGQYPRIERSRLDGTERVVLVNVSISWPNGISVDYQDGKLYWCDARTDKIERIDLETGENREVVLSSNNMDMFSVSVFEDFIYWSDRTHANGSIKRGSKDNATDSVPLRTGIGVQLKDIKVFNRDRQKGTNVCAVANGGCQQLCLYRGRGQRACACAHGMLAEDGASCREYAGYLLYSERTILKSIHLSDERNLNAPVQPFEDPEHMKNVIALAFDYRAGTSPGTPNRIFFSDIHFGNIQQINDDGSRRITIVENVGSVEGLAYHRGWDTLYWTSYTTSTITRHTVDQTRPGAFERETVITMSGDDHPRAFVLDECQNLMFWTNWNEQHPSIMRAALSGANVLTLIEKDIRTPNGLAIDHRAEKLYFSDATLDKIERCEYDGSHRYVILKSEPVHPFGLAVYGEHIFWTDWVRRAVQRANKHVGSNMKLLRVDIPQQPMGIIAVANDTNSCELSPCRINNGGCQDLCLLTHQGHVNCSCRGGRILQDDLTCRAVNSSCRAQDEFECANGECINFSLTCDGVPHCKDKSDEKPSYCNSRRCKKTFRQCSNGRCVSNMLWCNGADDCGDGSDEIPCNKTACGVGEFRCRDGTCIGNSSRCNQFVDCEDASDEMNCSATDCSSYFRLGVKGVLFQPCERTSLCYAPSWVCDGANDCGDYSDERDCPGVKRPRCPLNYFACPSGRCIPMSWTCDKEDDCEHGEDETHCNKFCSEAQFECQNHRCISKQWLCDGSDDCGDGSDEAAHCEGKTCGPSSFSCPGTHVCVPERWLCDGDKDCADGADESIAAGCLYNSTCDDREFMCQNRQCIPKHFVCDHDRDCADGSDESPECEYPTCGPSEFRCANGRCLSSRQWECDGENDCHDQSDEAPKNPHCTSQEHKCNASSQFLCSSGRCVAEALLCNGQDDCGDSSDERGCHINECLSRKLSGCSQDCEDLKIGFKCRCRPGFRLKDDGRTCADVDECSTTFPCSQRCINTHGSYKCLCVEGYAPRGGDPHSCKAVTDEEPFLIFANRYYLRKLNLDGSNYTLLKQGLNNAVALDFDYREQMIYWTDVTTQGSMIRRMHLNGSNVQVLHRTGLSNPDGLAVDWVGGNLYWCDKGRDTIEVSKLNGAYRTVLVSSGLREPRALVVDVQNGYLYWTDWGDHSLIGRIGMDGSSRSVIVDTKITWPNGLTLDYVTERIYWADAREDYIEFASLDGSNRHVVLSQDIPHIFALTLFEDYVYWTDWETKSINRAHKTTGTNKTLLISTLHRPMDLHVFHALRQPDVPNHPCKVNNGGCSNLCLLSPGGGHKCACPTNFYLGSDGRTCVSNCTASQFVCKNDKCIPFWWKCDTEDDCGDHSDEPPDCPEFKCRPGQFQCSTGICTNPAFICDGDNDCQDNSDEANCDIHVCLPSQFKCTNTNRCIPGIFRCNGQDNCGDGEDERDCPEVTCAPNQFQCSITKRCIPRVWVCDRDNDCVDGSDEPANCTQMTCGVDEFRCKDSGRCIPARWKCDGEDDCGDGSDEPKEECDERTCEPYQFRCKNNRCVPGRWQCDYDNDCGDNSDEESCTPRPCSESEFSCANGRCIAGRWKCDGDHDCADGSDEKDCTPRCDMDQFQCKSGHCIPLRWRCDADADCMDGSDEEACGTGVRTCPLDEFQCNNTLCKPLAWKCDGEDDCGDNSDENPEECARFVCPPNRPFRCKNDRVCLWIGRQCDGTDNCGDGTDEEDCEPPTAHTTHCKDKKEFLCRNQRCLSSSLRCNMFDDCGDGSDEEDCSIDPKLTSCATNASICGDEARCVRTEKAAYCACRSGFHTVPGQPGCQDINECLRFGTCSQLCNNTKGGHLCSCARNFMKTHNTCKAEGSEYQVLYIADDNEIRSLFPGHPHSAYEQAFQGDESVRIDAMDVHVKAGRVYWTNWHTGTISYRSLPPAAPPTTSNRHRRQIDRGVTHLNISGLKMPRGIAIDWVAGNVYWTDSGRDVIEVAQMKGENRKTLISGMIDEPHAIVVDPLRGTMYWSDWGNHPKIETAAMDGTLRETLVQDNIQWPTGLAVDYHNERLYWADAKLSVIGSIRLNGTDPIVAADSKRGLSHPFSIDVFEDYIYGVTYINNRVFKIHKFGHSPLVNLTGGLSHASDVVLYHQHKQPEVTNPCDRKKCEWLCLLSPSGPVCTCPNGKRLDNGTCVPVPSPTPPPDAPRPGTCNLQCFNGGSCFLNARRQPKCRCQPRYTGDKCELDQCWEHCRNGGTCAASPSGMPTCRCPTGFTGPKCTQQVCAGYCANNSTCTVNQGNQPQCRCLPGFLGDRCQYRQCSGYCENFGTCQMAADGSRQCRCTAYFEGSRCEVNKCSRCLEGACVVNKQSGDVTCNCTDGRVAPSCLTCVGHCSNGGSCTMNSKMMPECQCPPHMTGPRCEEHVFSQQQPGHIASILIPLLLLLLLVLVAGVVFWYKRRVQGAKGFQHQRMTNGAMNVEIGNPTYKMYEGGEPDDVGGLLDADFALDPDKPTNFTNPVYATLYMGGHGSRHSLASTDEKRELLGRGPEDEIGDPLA

Broadly, the Kd is the equilibrium constant for the complex coming apart.

FGF2 (Homo sapiens), sequence (P09038 143-288): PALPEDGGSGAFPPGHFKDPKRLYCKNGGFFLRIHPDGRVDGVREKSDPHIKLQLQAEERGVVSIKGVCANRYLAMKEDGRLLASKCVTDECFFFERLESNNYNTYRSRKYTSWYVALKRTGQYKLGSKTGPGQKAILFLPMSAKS

For the molecule FGF2 (from UniProt P09038), the dissociation constant (Kd) in the experiment with FGFR1 (Homo sapiens) [1] is 62 nM; with FGFR1 (Homo sapiens) [2], 2.7 nM.

For FGFR1 (from UniProt P11362), the Kd with FGF2 (Homo sapiens) [3] is 62 nM; with FGF2 (Homo sapiens) [4] it was 2.7 nM.

B1: pro-heparanase-1 (protein)
chain: QDVVDLDFFTQEPLHLVSPSFLSVTIDANLATDPRFLILLGSPKLRTLARGLSPAYLRFGGTKTDFLIFDPKKESTFEERSYWQSQVNQDICKYGSIPPDVEEKLRLEWPYQEQLLLREHYQKKFKNSTYSRSSVDVLYTFANCSGLDLIFGLNALLRTADLQWNSSNAQLLLDYCSSKGYNISWELGNEPNSFLKKADIFINGSQLGEDFIQLHKLLRKSTFKNAKLYGPDVGQPRRKTAKMLKSFLKAGGEVIDSVTWHHYYLNGRTATKEDFLNPDVLDIFISSVQKVFQVVESTRPGKKVWLGETSSAYGGGAPLLSDTFAAGFMWLDKLGLSARMGIEVVMRQVFFGAGNYHLVDENFDPLPDYWLSLLFKKLVGTKVLMASVQGSKRRKLRVYLHCTNTDNPRYKEGDLTLYAINLHNVTKYLRLPYPFSNKQVDKYLLRPLGPHGLLSKSVQLNGLTLKMVDDQTLPPLMEKPLRPGSSLGLPAFSYSFFVIRNAKVAACI
The molecule B1 displayed a dissociation constant (Kd) in experiment [5] of around 1.06 nM.

B2: pro-heparanase-1 (protein)
chain: B1 chain
modifications: complex of LRP with heparan sulphate proteoglycans (HSPG)
B2 came in with a dissociation constant (Kd) in experiment [5] of around 0.05 nM.
